Experimental data reported in patent US20240084003A1 (SIMCERE ZAIMING PHARMACEUTICAL, published 2024).
Each block holds one binder with its values, some of them ahead of it.

How the values were obtained:
human CD22 domain5-7-His = biological target: T1, human CD22 domain5-7-His (human, UniProt P20273 414-687); assay: ELISA, plate coated with human CD22 domain5-7-His
T1 construct: also called hCD22 domain5-7-His; not shown: His tag
T1 sequence: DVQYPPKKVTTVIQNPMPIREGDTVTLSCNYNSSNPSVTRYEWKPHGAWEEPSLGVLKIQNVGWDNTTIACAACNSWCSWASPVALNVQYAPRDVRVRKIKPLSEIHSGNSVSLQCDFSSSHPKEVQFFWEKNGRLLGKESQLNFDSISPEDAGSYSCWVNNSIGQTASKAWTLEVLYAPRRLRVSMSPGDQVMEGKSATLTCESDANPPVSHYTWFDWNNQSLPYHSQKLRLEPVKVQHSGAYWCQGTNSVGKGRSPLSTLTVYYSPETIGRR

[1] = biological target: T2, rhesus monkey CD22-ECD-His protein (rhesus monkey, UniProt H9G1X2 18-686); assay: SPR (Biacore), antibody captured on Protein A chip, rhesus CD22 in solution
T2 construct: extracellular domain; also called monkey CD22 protein
T2 sequence: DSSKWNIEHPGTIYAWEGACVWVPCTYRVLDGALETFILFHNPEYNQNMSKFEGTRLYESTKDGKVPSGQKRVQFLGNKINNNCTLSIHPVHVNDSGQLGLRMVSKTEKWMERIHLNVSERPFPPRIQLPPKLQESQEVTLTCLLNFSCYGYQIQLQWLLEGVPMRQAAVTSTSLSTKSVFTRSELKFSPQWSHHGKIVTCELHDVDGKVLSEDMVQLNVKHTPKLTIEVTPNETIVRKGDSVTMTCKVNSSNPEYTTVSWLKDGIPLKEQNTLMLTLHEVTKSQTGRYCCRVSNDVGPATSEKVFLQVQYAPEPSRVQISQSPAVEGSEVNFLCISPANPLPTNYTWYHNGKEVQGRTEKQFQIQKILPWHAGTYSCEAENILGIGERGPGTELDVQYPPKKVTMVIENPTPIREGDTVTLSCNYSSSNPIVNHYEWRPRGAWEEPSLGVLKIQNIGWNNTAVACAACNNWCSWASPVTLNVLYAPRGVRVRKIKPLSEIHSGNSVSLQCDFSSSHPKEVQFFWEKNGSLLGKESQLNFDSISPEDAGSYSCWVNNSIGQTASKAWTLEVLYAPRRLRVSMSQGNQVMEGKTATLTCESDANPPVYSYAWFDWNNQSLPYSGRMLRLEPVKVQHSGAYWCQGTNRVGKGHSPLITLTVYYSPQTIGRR

[2] = biological target: T3, human CD22-ECD-His protein (human, UniProt P20273 20-687); assay: SPR (Biacore), antibody captured on Protein A chip, CD22-ECD-His in solution
T3 construct: Recombinant, from HEK293E cells; also called hCD22-ECD-His; human CD22-His protein; not shown: His tag
T3 sequence: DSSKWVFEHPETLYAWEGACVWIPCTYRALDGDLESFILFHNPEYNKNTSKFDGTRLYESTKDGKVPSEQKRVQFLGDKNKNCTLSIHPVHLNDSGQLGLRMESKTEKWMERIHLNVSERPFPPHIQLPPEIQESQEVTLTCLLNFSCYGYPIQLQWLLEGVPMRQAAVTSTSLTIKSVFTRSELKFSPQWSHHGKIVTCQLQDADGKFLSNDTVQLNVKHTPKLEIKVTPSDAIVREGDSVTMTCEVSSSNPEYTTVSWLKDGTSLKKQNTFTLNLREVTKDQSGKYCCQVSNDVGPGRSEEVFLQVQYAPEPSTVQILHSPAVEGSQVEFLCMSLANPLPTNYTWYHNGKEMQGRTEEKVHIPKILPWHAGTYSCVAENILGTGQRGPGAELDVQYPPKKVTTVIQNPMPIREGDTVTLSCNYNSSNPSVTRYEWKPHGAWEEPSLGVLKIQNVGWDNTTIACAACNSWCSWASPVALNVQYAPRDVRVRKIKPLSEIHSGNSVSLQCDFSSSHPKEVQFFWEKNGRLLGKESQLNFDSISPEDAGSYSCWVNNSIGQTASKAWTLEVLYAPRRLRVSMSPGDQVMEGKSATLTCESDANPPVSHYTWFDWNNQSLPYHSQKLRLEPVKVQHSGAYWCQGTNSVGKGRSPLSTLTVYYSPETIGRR
Experimental: Sample buffer and running buffer were HBS-EP+(10 mM HEPES, 150 mM NaCl, 3 mM EDTA, 0.05% surfactant P20) (GE Healthcare; BR-1006-69). The flow-through cell was set to 25° C. The sample block was set to 16° C. Both were pretreated with the running buffer. In each cycle, the antibody to be tested was first captured with a Protein A chip, then a single concentration of CD22 antigen protein was injected. The binding and dissociation process of the antibody and the antigen protein was recorded, and finally Glycine pH 1.5 (GE Healthcare; BR-1003-54) was used to complete chip regeneration. Binding was measured by injecting different concentrations of recombinant human CD22-ECD His protein in solution for 240 s with a flow rate of 30 μL/min. The concentration started from 200 nM (see the detailed results for the actual concentration in the test) and was diluted at 1:1, making a total of 5 concentrations. The dissociation phase was monitored for up to 600 s and was triggered by switching from sample solution to running buffer. The surface was regenerated by washing with a 10 mM of glycine solution (pH 1.5) for 30 s at a flow rate of 30 μL/min. Bulk refractive index difference was corrected by subtracting the response obtained from the goat anti-human Fc surface. Blank injection was also subtracted (=double reference). For calculation of apparent KD and other kinetic parameters, Langmuir 1:1 model was used.

binding result (human CD22 domain5-7-His): no binding | Kd [1]: 2.04 nM | koff [1]: 0.000107 s⁻¹ | kon [1]: 52300 M⁻¹ s⁻¹ | Kd [2]: 13.8 nM | koff [2]: 0.000267 s⁻¹ | kon [2]: 19400 M⁻¹ s⁻¹
B1: F1.224.1 (antibody, human IgG1, kappa, V domains shown)
VH: EVLLHQSGPELVKPGASVKISCKASGYTFTDFNMDWVRQRHGQSLEWIGDVNPNNGGTIYNQKFKGKATLTVDKSSSTVYMDLRSLTSDDTAVYYCVRLGTSDYGEAWFISWGQGTVVTVSA
VL: DIVLTQSPASLAVSLGQRATISCRASQSVSTPRYSFMHWYQQKPGQPPKLLIKYASNLESGFPARFTGSGSGTDFTLNIHPVEEEDTAAYYCQQSWAIPWTFGGGTKLEIKR
notes: Chimeric IgG1 kappa

binding result (human CD22 domain5-7-His): no binding | Kd [1]: 14.5 nM | koff [1]: 0.000545 s⁻¹ | kon [1]: 37600 M⁻¹ s⁻¹ | Kd [2]: 1.55 nM | koff [2]: 0.000162 s⁻¹ | kon [2]: 105000 M⁻¹ s⁻¹
B2: F2.99.1 (antibody, human IgG1, lambda, V domains shown)
VH: QVTLKESGPGILQPSQTLSLTCSFSGFSLSTFPMGVGWIRQPSGKGLEWLAHIWWDDDEYYNPVLKSRLTISKDTSKKQVYLRIANVDTVDTATYYCTRANWDRWYFDVWGTGTTVTVSS
VL: QLVLTQSSSASFSLGASAKLTCTLSRQHSAYTIEWYQQQPLKPPKYVMEVKKDGSHSTGDGIPDRFSGSSSGADRYLSISNIQPEDEAIYICGVGDTIKEHFVFGGGTKVTVLG
notes: Chimeric IgG1 lambda

binding result (human CD22 domain5-7-His): no binding | Kd [1]: 15.1 nM | koff [1]: 0.000637 s⁻¹ | kon [1]: 42100 M⁻¹ s⁻¹ | Kd [2]: 19.5 nM | koff [2]: 0.000232 s⁻¹ | kon [2]: 11900 M⁻¹ s⁻¹
B3: F1.120.15 (antibody, human IgG1, kappa, V domains shown)
VH: QVQLQQSGPELVKPGASVKISCKASGNAFSNSWMNWVKQRPGKGLEWIGRVYSEDGDTQYNGKFRDKATLTADRSTSTAYMQLSSLTSEDSAVYFCARWLIYYGTYGAMDYWGQGTSVTVSS
VL: DIQMTQTTSSLSASLGDRVTISCRASQDINNYLNWYHQKPDGTVKLLIYFTSRPYSGVPSRFSGSGSGTDYSLTISNLEQEDIATYFCQQGNTLPWTFGGGTKLEIKR
notes: Chimeric IgG1 kappa

binding result (human CD22 domain5-7-His): no binding | Kd [1]: 7.18 nM | koff [1]: 0.000538 s⁻¹ | kon [1]: 74900 M⁻¹ s⁻¹ | Kd [2]: 25.3 nM | koff [2]: 0.000944 s⁻¹ | kon [2]: 37300 M⁻¹ s⁻¹
B4: F1.216.2 (antibody, human IgG1, kappa, V domains shown)
VH: QVQLQQSGPEVVRPGASVKISCKASGYAFSSSWMNWMKQRPGKALEWIGRIYPGDGDTNYSGEFKVKATLTADKSSSTAYMQLSSLTSEDSAVYFCAREGSYYSNPWYFDYWGQGTTLTVSS
VL: DVLVTQTPLSLPVSLGDQASISCRSSQSIVQSNGDTYLEWYLQKPGQSPKLLIYKVSNRFSGVPDRFSGSGSGTDFTLKISRVEAEDLGVYYCFQGSHVPFTFGSGTKLEIKR
notes: Chimeric IgG1 kappa

binding result (human CD22 domain5-7-His): no binding | Kd [1]: 6.9 nM | koff [1]: 0.00138 s⁻¹ | kon [1]: 200000 M⁻¹ s⁻¹ | Kd [2]: 17.6 nM | koff [2]: 0.00539 s⁻¹ | kon [2]: 306000 M⁻¹ s⁻¹
B5: F1.172.13 (antibody, human IgG1, kappa, V domains shown)
VH: QVTLKESGPGILQSSQTLSLTCSFSGFSLSTSGMGVSWIRQPSGKGLEWLAHIYWDDDKRYNPSLKSRLTISKDTSRNQVFLKITSVDTADTATYYCARAPPPNWDEYYFDYWGQGTTLTVSS
VL: DIQMTQSPASLSASVGETVTITCRASGNIHNSLAWYQQKQGKSPQLLVHNAKTLADGVPSRFSGSGSGTQYSLKINSLQPEDFGSYYCQHFWSTPPFGGGTKLEIKR
notes: Chimeric IgG1 kappa

binding result (human CD22 domain5-7-His): no binding | Kd [1]: 3.48 nM | koff [1]: 0.00127 s⁻¹ | kon [1]: 366000 M⁻¹ s⁻¹ | Kd [2]: 1.44 nM | koff [2]: 0.000607 s⁻¹ | kon [2]: 422000 M⁻¹ s⁻¹
B6: F1.250.16 (antibody, human IgG1, kappa, V domains shown)
VH: QVQLQQSGAEQVKPGASVKMSCKASGYTFTTYPIEWMKQNHGESLDWIGNIHPYNDDTEYNEKFKGKATLTVEKSSNTVFLELSRLTSDDSAVYYCVRGDYYNSRYWYFDVWGTGTTVTVSS
VL: DIVMTQSQKFMSTTVGDRVSITCKAGQNVRTAVAWYQQKPGQSPKLLIYSASTRYIGVPERFTGSGSGTDFTLTITNMQSEDLADYFCQQYSSFPLTFGTGTKLELKR
notes: Chimeric IgG1 kappa

binding result (human CD22 domain5-7-His): no binding | Kd [1]: 3.67 nM | koff [1]: 0.000531 s⁻¹ | kon [1]: 144000 M⁻¹ s⁻¹ | Kd [2]: 2.07 nM | koff [2]: 0.000498 s⁻¹ | kon [2]: 241000 M⁻¹ s⁻¹
B7: F1.17.1 (antibody, human IgG1, kappa, V domains shown)
VH: QVQLKESGPGLVAPSQSLSITCTVSGFSLSRYTVHWVRQPPGKGLEWLGMIWGGGSTDYNSALKSRLSISKDNSKSQVFLKMNSLQTDDTAMYYCARPHDFDAGGFAYWGQGTLVTVSA
VL: QIVLTQSPAILSTSPGEKVTMTCSASSRVNYMYWYQQKPGSSPRLLIYDTSNLASGVPVRFSGSGSGTSYSLTISRMEAEDAATYYCQQWTSYPLTFGAGTKLELKR
notes: Chimeric IgG1 kappa

binding result (human CD22 domain5-7-His): no binding | Kd [1]: 46.7 nM | koff [1]: 0.000883 s⁻¹ | kon [1]: 18900 M⁻¹ s⁻¹ | Kd [2]: 4.74 nM | koff [2]: 0.000232 s⁻¹ | kon [2]: 49000 M⁻¹ s⁻¹
B8: F2.173.9 (antibody, human IgG1, lambda, V domains shown)
VH: EVQLVESGGDLVKPGESLKLSCEASGFTFSNYAMSWVRQTPDRRLEWVATISSIGSFTYYSDSVKGRFTISRDNVKSTLHLQMNNLKSGDTAIYFCARLGVYFDSWGQGTTLTVSS
VL: QLVLTQSSSASFSLGASAKLTCTLSSQHSTYTIEWYQQQPHKPPKFVMEIKKDGSHYTGDGIPDRFSGSSSGADRYLSISNIQPEDETIYICGVSDMIKDQFVYVFGGGTKVTVLG
notes: Chimeric IgG1 lambda

binding result (human CD22 domain5-7-His): no binding | Kd [1]: 10.3 nM | koff [1]: 0.0014 s⁻¹ | kon [1]: 135000 M⁻¹ s⁻¹ | Kd [2]: 1.57 nM | koff [2]: 0.000386 s⁻¹ | kon [2]: 246000 M⁻¹ s⁻¹
B9: F2.205.9 (antibody, human IgG1, lambda, V domains shown)
VH: QVTLKESGPGILQPSQTLSLTCSFSGFSLSTSGMGVGWIRQPSGKGLEWLAHIWWDDDEYYNPALKSRLTISKDTSKNQVFLKIANVDTADTATYYCARISIPYGYYDWFFDVWGTGTTVTVSA
VL: QAVVTQESALTTSPGETVTLTCRSSTGAVTTRNYANWVQEKPDHLFTGLIGGTNNRAPGVPARFSGSLIGDKAALTITGAQTEDEAIYFCALWYSNHFIFGSGTKVTVLG
notes: Chimeric IgG1 lambda

binding result (human CD22 domain5-7-His): no binding | Kd [1]: 2.25 nM | koff [1]: 6e-05 s⁻¹ | kon [1]: 26700 M⁻¹ s⁻¹ | Kd [2]: 40.9 nM | koff [2]: 0.000223 s⁻¹ | kon [2]: 5440 M⁻¹ s⁻¹
B10: F1.267.9 (antibody, human IgG1, kappa, V domains shown)
VH: EVQLQQSGPVLVKPGASVKMSCKASGYTFTDFYMNWAKQSHGKSLEWVGVINPYNGGINYNQKFKGKATLTVDKSSSTAYMEFNSLTSEDSAVYYCARRMEYHAMDYWGQGTSVTVSS
VL: DIVLTQSPASLAVSLGQRATISCRASESVDNYGFDFIHWYQQKPGQPPKLLIYRASNLESGIPARFSGSGSRPDFTLTINPVETDDVATYYCQQSIKDPWTFGGGTKLEIKR
notes: Chimeric IgG1 kappa
